Reference: paper PMC3210382

Biological target: BoNT/A toxoid (formaldehyde-inactivated botulinum neurotoxin type A, 150 kDa) (UniProt P0DPI1 2-1296)
Experiment: […]

Sequence of BoNT/A toxoid (formaldehyde-inactivated botulinum neurotoxin type A, 150 kDa) (P0DPI1 2-1296): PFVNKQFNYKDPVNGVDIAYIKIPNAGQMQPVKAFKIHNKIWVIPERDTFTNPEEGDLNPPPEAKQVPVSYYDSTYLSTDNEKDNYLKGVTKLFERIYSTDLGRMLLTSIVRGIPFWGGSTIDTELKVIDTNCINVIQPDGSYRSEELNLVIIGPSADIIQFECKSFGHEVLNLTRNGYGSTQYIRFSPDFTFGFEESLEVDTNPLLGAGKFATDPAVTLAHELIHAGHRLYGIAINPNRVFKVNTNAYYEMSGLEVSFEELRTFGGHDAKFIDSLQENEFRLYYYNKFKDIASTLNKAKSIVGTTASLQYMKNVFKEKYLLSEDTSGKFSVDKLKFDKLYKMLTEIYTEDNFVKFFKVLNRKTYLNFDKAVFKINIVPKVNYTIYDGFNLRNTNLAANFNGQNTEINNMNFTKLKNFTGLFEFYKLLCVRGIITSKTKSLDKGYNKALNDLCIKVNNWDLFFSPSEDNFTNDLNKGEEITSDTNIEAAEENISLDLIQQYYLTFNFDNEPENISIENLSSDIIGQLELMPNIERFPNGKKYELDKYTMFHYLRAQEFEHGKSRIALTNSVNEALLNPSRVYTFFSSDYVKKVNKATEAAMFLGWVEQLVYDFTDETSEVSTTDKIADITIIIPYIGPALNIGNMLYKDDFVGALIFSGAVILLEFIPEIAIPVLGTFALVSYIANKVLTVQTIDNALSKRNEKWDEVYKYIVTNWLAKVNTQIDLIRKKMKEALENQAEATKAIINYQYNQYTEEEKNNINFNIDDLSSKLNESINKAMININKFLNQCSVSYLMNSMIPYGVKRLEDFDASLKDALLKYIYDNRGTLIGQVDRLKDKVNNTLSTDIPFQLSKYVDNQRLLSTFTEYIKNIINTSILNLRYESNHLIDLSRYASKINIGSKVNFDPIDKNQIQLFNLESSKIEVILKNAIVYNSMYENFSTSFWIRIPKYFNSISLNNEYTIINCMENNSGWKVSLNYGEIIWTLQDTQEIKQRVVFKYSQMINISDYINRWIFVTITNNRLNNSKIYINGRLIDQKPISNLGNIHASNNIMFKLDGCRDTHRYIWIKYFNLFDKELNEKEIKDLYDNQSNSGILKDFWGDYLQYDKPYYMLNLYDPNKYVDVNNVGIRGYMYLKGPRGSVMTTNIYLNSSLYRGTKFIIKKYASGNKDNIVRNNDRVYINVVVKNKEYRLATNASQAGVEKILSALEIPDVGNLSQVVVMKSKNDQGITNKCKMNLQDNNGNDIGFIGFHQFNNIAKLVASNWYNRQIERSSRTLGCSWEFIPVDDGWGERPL

B1: BoNT/A aptamer (76 nt) (ssDNA)
DNA: ATACCAGCTTATTCAATTGACATGACTGGGATTTTTGGCGAAATCGAAGGAAGCGGAGAGATAGTAAGTGCAATCT
binding signal: ~3.8 signal-to-background ratio
